# Data from patent US9175077B2, “Nucleic acids encoding biologically active polypeptides derived from a novel early stage pregnancy factor designated maternin (MA)” (NOBEL BIOSCIENCES LLC, priority 1999, dated 2015).
# Read-outs that look alike come from different tables or passages of the source.
# B1: β-hCG: β-chain of human chorionic gonadotropin, AA 1-145 (SEQ ID NO: 1) (protein, listed as Homo sapiens)
# chain: SKEPLRPRCRPINATLAVEKEGCPVCITVNTTICAGYCPTMTRVLQGVLPALPQVVCNYRDVRFESIRLPGCPRGVNPVVSYAVALSCQCALCRRSTTDCGGPKDHPLTCDDPRFQDSSSSKAPPPSLPSPSRLPGPSDTPILPQ
# Assays:
# [1] = system: human carcinoma and sarcoma cells (PC3, KS Y-1); test: Xenotransplanted human tumors in immunodeficient mice; format: in vivo; details: controls at equivalent and higher molar concentrations
# Procedure: In the first set of experiments, MA was tested against tumors formed by xenotransplantation of various human carcinoma and sarcoma cells in immunodeficient mice. […] […] Three different synthetic forms of MA were used: full length (MAS3) and the previously described MAS1 and MAS2 (Panel C).
# [2] = Summary of active and inactive peptides / overall biological activities
# [3] = system: HIV-1; details: controls at similar, equimolar or higher concentrations
# Procedure: Virus (MOI of 0.001) was added to 10^6 cells in RPMI-1640 with 10% FCS. One hour later the various polypeptides were added once. The cells cultured for 3 days with 5 ug PHA and 20 i.m. of II-2/ml at 37°, after which virus was estimated by determining p24 (HIV-1) or p27 (SIV) (Organon-Teknika).
# The effect of native and synthetic MA on HIV-1 infection in vitro was evaluated using PHA and II-2 stimulated primary peripheral blood cells (PBMC), CD4+ T-cells enriched fractions from PBMC, and CD14+ macrophage enriched fractions. Infection was with HIV-1 IIIB (PBMC and CD4+ T-cells), HIV-1 Ba-L (macrophages), and two primary HIV-1 isolates not passaged in any cell line (PBMC).
# [4] = system: HIV; details: higher doses increased viral production; cited from earlier work
# [5] = system: human tumor cells; format: cell-based; details: controls at equimolar or 5 to 10× greater concentrations
# Procedure: The anti-tumor activities of MA were assessed in several in vitro and in vivo systems using published methods.^166 In vitro studies were with a wide variety of human tumor cell lines as well as short-term cultures of cells from biopsy samples obtained from tumors. The assays included effects of MA on colony formation, cell number and viability (trypan blue), and apoptosis. Four measures of microscopy were used. In vivo studies included the effects of MA on tumors induced in immunodeficient mice by xenotransplanted various human neoplastic cells, spontaneous neoplasms of immuno-competent mice and rats, and a few standard tumors in immuno-competent mice. Representative examples are presented.
# Cells (5×10^5/ml) were seeded in modified Eagle's medium supplemented with 10% FCS, 10% conditioned medium form PHA stimulated human lymphocytes, 2 mM glutamine in 0.8% V/V methylcellulose with or without various treatments in a final volume of 1.0 ml. Then 0.1 ml aliquots were seeded in 96 well flat bottom microtest plates and incubated at 37° C. in 5% CO2 in air for 7 days. Aggregates containing 50 cells or more were scored as colonies.
# 5×10^5 cells were seeded in triplicate on 24 gelatin coated wells in conditions as described for Panel A and treated with the indicated test materials. After 3 days the cells were dislodged from their monolayers by gentle pipetting with cell dissociation buffer (Life Technologies), counted after trypan blue staining and aliquots examined for Annexin V staining by indirect IFA […].
# Studies of the anti-tumor cell effects of MA were extended to other carcinomas, melanoma, some hematopoietic tumors, and carcinomas of the colon, prostate, breast, lung, brain, pancreas, and kidney-using cell lines from these tumors. […] Many more types of tumor cells were studied utilizing other assays (see below).
# [6] = system: hematopoietic progenitors (CFU-GEMM, BFU-e, CFU-GM, T-CFC); test: Hematopoietic colony formation assays; format: cell-based, human
# Text: Hematopoietic colony formation assays with bone marrow or cord blood of normal human volunteers and bone marrow of monkeys, rats, and mice were utilized. The assays are conventional measurements of the number of progenitors for erythrocytes, granulocytes, macrophages, platelets, and T-cells. The culture conditions included growth factors that would give near optimum growth for the particular lineage. These factors included II-3, PHA-lymphocyte conditioned medium, erythropoietin (EPO), II-6, and GM-CSF. The number of colonies developing in methylcellulose reflects the number of progenitor cells, and the percent increase is a measure of the effect of different polypeptides to increase colony number above the maximum obtained with the indicated known growth factors.
# The latter is a less conventional assay, and details on the methods involved are described elsewhere.^178
# [7] = target: T1, hCG receptor (Homo sapiens, UniProt P22888); details: cited from earlier work
# T1 construct: host or cells: unspecified cells
# [8] = system: HIV-1 gene expression; test: HIV-1 transgenic mice, pups feeding from treated mothers; format: in vivo; details: mouse, in vivo
# Text: The transgenic mice contain 5.1 kb of the HIV-1 proviral genome, lacking gag and pol genes and 2.3 kb of vector.^172 The newly developed transgenic rat contains the same HIV-1 sequences and vector.
# Twenty-four hours after birth the mothers were either inoculated subcutaneously daily for 10 days or received an implanted osmotic pump delivering 30-150 pmoles of either native or synthetic MA or pMA. Various control polypeptides were used at equimolar or vast molar excess. The newborn pups were then allowed to feed from the foster mother breast milk over the entire period. Since the animals are at risk from needle inoculation, breastfeeding was the chosen route for MA administration.
# In these experiments total RNA was extracted from samples of skin RNA206 10 days after birth of MA treated and untreated mice. One ug of RNA was reverse transcribed into cDNA using random hexamer primer and […] reverse transcriptase (Life Technologies, Inc.) in a final vol. Of 30 ul. Three ul of each reaction was used for PCR amplification of the HIV-1 gene sequences (env, tat, nef, and rev) as described […], and glyceraldehyde 3-phosphate dehydrogenase (GAPDH) was amplified from each sample for normalization. After 25 cycles, 10% of the products were resolved by electrophoresis on 2% agarose gels, transferred to nitrocellulose membranes by Southern blotting, and hybridized to fluorescein isthiocyanate-labeled oligonucleotide probes complementary to internal sequences of the amplicons […]. Bound probes were detected by chemiluminescence (Amersham) and relative mRNA levels determined by densitrometry after normalization with GAPDH mRNA levels.
# [9] = Lethal dose taxol in Sprague-Dawley rats; format: in vivo; details: even at high doses
# Procedure: Sprague-Dawley rats were given taxol in large lethal doses, 4.5 mg in one I.P. inoculation. […] Bone marrow suppression can also be a side effect of the clinical use of taxol.^179 As in the radiation experiments, either MA, pMA, MAS1, or various polypeptide controls were given subcutaneously only in two doses 24 and 48 hrs before taxol treatment or were given 3×/week for 4 weeks. […]
# T1 sequence (P22888 27-699): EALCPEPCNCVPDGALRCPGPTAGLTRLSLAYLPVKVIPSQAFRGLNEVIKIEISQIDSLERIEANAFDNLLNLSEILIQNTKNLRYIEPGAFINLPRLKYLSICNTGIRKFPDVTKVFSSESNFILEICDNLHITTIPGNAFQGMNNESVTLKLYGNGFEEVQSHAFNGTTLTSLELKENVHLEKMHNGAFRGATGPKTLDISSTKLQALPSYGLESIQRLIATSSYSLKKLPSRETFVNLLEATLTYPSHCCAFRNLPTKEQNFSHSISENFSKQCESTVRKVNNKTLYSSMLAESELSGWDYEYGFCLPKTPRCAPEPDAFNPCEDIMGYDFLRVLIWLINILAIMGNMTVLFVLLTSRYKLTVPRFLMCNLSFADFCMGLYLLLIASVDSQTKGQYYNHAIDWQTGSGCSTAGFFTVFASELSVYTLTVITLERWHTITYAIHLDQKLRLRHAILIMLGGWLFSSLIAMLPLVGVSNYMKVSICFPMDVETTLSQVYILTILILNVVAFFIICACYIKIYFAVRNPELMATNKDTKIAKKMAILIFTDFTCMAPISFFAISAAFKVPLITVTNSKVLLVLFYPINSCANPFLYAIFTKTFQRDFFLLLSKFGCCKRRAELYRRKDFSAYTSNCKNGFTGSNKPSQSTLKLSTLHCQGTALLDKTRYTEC
molecule,measurement,setting,value
B1,effect on xenotransplanted tumor (qualitative),[1],no effect
same,biological activities in vitro or in vivo in the experimental systems described,[2],no activity
same,inhibition of HIV replication (qualitative),[3],No inhibition
same,inhibition of HIV replication (qualitative),[3]; listed as rβ-hCG,no effect
same,doses reducing HIV production in monocytes,[4],≤ 10 µg/mL
same,inhibition of growth / induction of apoptosis of neoplastic cells,[5],no inhibition of growth or induction of apoptosis
same,hematopoietic effects in vivo and in vitro,[6],None
same,effect on colony number (qualitative),[6]; equimolar or higher concentrations,no significant effect above background
same,binding to the hCG receptor,[7],neither β-hCG or any of its degradation products significantly bind
same,HIV-1 viral expression in tissues,[8],high expression
same,mice dead by day 10,[8],10 of 10
same,effect on survival (qualitative),[9],no effect
